Reference: PMC3882142

Biological target: bacteriophage P22 coat protein (CP), assembled as the P22 VLP capsid (bacteriophage P22) (UniProt P26747)
Test: SEC-MALS

Chain of UniProt P26747 (P26747 whole entry): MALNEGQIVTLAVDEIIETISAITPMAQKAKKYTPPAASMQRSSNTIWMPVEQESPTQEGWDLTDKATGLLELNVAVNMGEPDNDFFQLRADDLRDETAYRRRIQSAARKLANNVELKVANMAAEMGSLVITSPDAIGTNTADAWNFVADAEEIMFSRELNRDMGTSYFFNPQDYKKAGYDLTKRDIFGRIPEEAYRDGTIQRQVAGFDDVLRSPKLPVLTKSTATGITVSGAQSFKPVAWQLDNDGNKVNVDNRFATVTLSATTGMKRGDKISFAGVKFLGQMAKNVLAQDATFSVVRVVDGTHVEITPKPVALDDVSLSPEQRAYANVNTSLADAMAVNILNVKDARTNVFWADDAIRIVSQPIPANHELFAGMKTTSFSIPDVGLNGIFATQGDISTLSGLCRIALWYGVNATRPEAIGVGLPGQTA

Substance | stoichiometry N (proteins per capsid)
GalA-SP fusion protein (alpha-galactosidase of Pyrococcus furiosus fused to the truncated scaffold protein of P22) | 183
HA_(head)-SP fusion protein (hemagglutinin head of influenza fused to the truncated scaffold protein of P22) | 286
